Source: PMC9010301

Biological target: Rad24-RFC clamp loader;9-1-1 clamp (Ddc1-Mec3-Rad17) (Saccharomyces cerevisiae;Saccharomyces …, UniProt P32641;P40348;P38629;P40339;P38251;Q08949;Q02574;P48581 …, |)
Assay: cryo-EM structure; closed 9-1-1 state; 0.5 mM ATPgS, 5 mM Mg acetate; 4 ATPgS and 1 ADP bound; 3.2 A; 1.8 uM Rad24-RFC, 2.2 uM 9-1-1, 2.7 uM DNA, 0.5 mM ATPgS, 5 mM Mg acetate; 9-1-1 + DNA 10 min at 30 C, then with loader on ice water 30 min (double-tailed) or 3

B1: double-tailed DNA (3'- and 5'-recessed ends) (dsDNA)
DNA 1: GCAGACACTACGAGTACATA
DNA 2: TTTTTTTTTTTATGTACTCGTAGTGTCTGCTTTTTTTTTT
modifications: 5'-OH
  binding result: binds
